Reference: IntAct's records for PubMed 20010697

B1: Zinc finger protein ZFPM1 (Mus musculus), O35615 (parent)
chain: MSRRKQSNPRQIKRSLRDMEAGEEAKAMDSSPKEQEAPDPEAPAIEEPPSPPREDVSPPAVPAPPESPEDPEDMEGQELEMRPQDEEKEEKEEEAAMASPWSGPEELELALQDGQRCVRARLSLTEGLSWGPFYGSIQTRALSPEREEPGPAVTLMVDESCWLRMLPQVLTEEAANSEIYRKDDALWCRVTKVVPSGGLLYVRLVTEPHGAPRHPVQEPVEPGGLAPVHTDIQLLPQQAGMASILATAVINKDVFPCKDCGIWYRSERNLQAHLLYYCASRQRAGSPVSATEEKPKETYPNERVCPFPQCRKSCPSASSLEIHMRSHSGERPFVCLICLSAFTTKANCERHLKVHTDTLSGVCHNCGFISTTRDILYSHLVTNHMVCQPGSKGEIYSPGAGHPAAKLPPDSLAGFQQHSLMHSPLVPADKAPTPSSGLDSKAEVTNGETRVPPQNGGSSESPAAPRTIKVEAAEEPEATRASGPGEPGPQAPSRTPSPHSPNPVRVKTELSSPTPGSSPGPGELTMAGTLFLPQYVFSPDAGTTTVPTAPQASEILAKMSELVHNRLQQGAGSSGAAGTPTGLFSGTKGATCFECEITFNNINNFYVHKRLYCSGRRAPEDPPTVRRPKAATGPARAPAGAAAEPDPSRSSPGPGPREEEASGTTTPEAEAAGRGSEGSQSPGSSVDDAEDDPSRTLCEACNIRFSRHETYTVHKRYYCASRHDPPPRRPPAPTTAPGPAAPALTAPPVRTRRRRKLYELPAAGAPPPAAGPAPVPVVPSPTAELPSSPRPGSASAGPAPALSPSPVPDGPIDLSKRPRRQSPDAPTALPALADYHECTACRVSFHSLEAYLAHKKYSCPAAPLRTTALCPYCPPNGRVRGDLVEHLRQAHGLQVAKPAASPGAEPRTPAERAPRDSPDGRAPRSPSPAPENTPSDPADQGARTPSKGPPAPAPAPGGGGGHRYCRLCNIRFSSLSTFIAHKKYYCSSHAAEHVK
partner: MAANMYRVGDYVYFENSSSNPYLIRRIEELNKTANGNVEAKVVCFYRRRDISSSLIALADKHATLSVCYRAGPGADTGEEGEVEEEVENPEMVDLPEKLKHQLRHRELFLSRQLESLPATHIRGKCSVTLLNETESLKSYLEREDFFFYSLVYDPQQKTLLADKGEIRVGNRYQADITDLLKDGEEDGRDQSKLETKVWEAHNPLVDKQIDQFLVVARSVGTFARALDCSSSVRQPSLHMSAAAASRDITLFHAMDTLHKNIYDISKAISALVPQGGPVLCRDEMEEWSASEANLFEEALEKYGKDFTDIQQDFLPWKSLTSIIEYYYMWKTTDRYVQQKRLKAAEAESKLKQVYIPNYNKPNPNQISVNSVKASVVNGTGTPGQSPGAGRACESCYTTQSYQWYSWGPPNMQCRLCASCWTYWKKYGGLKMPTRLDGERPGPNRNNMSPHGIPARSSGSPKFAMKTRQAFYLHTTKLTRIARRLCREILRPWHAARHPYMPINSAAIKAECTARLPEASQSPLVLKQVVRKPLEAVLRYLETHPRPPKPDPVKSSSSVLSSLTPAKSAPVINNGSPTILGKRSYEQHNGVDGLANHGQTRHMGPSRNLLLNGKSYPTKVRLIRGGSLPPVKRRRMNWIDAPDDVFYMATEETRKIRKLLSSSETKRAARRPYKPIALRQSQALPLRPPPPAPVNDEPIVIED

Variants of: B1
Conditions: with mta1_rat Mta1, Q62599

| Variant | effect of a mutation on the interaction |
| --- | --- |
| K5A | disrupting interaction |
| R3A | disrupting interaction |
